Earlier results on one substance are cited in paper PMC10213776.

For this series, the target named is IL-18 (Homo sapiens) (UniProt Q14116).
IL-18 (Homo sapiens), sequence (Q14116 37-193): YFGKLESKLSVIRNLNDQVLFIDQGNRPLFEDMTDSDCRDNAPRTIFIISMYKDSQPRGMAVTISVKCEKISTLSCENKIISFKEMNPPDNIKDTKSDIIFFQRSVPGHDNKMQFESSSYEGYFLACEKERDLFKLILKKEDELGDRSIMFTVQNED

IL-18BP, sequence (O95998 31-194): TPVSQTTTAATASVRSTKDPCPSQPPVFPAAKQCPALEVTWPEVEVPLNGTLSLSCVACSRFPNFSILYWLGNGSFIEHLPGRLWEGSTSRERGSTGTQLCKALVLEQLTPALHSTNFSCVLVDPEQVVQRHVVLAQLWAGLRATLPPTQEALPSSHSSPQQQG

By Kd is commonly meant the equilibrium constant for the complex coming apart. Take IL-18BP (from UniProt O95998): the Kd is 400 pM.
